In data set [1] the test system is Romney ewes. The data set can be described thus: Trial 2: bromocriptine treatment of winter-lambing Romney ewes (plasma prolactin, wool growth, lambs). In kind it is in vivo, sheep. The settings on record: bromocriptine given to pregnant ewes before or after parturition. The method, then: Natural and experimental changes in plasma prolactin concentration and their effects on wool production in winter-lambing Romney ewes were measured.
Fourteen non-pregnant and 29 pregnant ewes were maintained indoors from early April 1995 for 12 months under controlled photoperiod and controlled dietary intake. Two groups (n=8) were held under long day photoperiod (16L:8D; LD non-pregnant and LD-lambed) while 2 others were exposed to natural photoperiod (ND non-pregnant, n=6 and ND-lambed, n=7). Two further groups (n=7) of pregnant ewes housed in natural days were treated with bromocriptine, either from 1 week before parturition (ND-BrB) or 1-3 days after parturition (ND-BrA), to suppress prolactin secretion.
Lambing occurred between 12 and 18 June. Plasma prolactin, mean fibre diameter and wool growth were measured at regular intervals and the results were plotted in FIG. 3.

The next data set deals with rabbits. The settings on record: bromocriptine-treated rabbits, single injection of 3 mg of prolactin; cited from earlier work.
Data set [2] deals with Romney ewes. In kind it is in vivo, sheep. The text has this:
The effects of two methods of administration of exogenous prolactin on wool growth were examined.
Forty-three mixed age Romney ewes were maintained indoors in individual pens from April until October, and fed to maintain a constant maternal live weight (independent of conceptus and fleece weights). A control group (ND non-pregnant) was not mated (n=8). Thirty-five other ewes (comprising Groups 2-5) were mated in April. Groups 1-4 were maintained in natural photoperiod while Group 5 (LD-lambed, n=10) was subjected to long days (16L:8D) from 1 week after mating for the duration of the trial (ie 18 days).
An ovine prolactin pituitary extract (0.80 mg/kg/day) was administered by either daily subcutaneous injection to sheep of Group 3 (PRL-INJ, n=10) or by intravenous infusion via a jugular cannula to sheep of Group 4 (PRL-INF, n=2) (from one week after mating for a temporary period of 18 days).
The sheep were shorn on entry to the experiment and again at the conclusion of the experiment in late September and a mid-side wool sample was measured for fibre diameter and yield. Wool samples were clipped from a standardised 100×100 mm mid-side patch on the right side of each ewe at monthly intervals to determine changes in seasonal clean wool production and mean fibre diameter. Wool growth and plasma prolactin concentrations were measured at regular intervals and the results were plotted in FIGS. 4 and 5.

The test system of data set [3] is prolactin receptor long form gene expression. In words: Trial 3: skin prolactin receptor long form gene expression by real-time PCR. In kind it is in vivo, sheep. The method, then:
Six midside skin biopsies were collected at intervals between April and June for measurement of prolactin receptor long form gene expression by real-time PCR and the results are plotted in FIG. 6. An assay for the short form of the ovine prolactin receptor was also developed, but results are not presented since only very low levels of expression were detected.
(§1) The relative expression of prolactin receptor mRNA was measured using Taqman real-time PCR (Applied Biosystems). RNA was extracted from skin samples using TRIzol reagent according to manufactures protocol (Invitrogen). Total RNA was then quantified using RiboGreen reagent (Invitrogen) and all samples were standardized to a concentration of 0.5 μg/μl of total RNA. The reverse transcriptase reaction (Superscript II RT-PCR kit, Invitrogen) was used to generate single stranded cDNA from 0.5 μg of total RNA.
(§2) The primers and probes for the long form of the prolactin receptor were designed using the Primer Express program (Applied Biosystems).
(§3) The 18S ribosomal RNA pre-developed assay reagent (Applied Biosystems) was used as an internal control and the reactions were set up according to the manufacturers instructions. Data was analysed using the software provided by Applied Biosystems. Results on relative mRNA quantities were obtained by the standard curve method.
On the technique in general: Quantitative PCR measures a nucleic acid by following its amplification.

A further data set relates to prolactin receptor. The settings on record: cited from earlier work.
Data set [4] has as its system prolactin receptor long form gene expression. In words: Trial 5: skin prolactin receptor long form gene expression by real-time PCR. In kind it is in vivo, sheep. The method, then: as §1
(§4) Twenty-one, mixed age, non-pregnant Romney ewes were maintained indoors in individual pens from September 2001 until February 2002. The ewes were fed to maintain a constant live weight. They were divided into 3 groups: short day controls (n=7), short day prolactin infused (n=7) and normal day controls (n=7). An ovine prolactin pituitary extract (1.0 mg/kg/day) was administered to each ewe in the short day infused group by intravenous infusion via a jugular cannula commencing on 9 October for 9 days. A second 9-day prolactin infusion was administered to the same ewes commencing on 20 November, 33 days after the end of the first infusion.
Plasma prolactin concentrations were measured at regular intervals and ten midside skin biopsies were collected at intervals between October and December 2001 for measurement of prolactin receptor long form gene expression by real-time PCR. […]

The test system of data set [5] is Romney ewes. The data set can be described thus: Trial 4: 3-, 9- or 18-day prolactin infusion, wool growth in pregnant Romney ewes. In kind it is in vivo, sheep. To be noted: for mean total patch weight (clean wool): 12-month trial. The method, then:
Trial 4 was conducted to compare different periods of exogenous prolactin administration on wool growth.
Eighteen 3 year old Romney ewes were maintained indoors in individual pens under natural photoperiod for 12 months from March 2000. […] The ewes were fed to maintain a constant maternal live weight (independent of conceptus and fleece weights). A control group (ND non-pregnant) was not mated (n=6). Twelve other ewes (comprising Groups 2-4) were mated on 23 April.
An ovine prolactin pituitary extract (1.0 mg/kg/day) was administered by intravenous infusion via a jugular cannula commencing 11 days after mating (4 May) for temporary periods of either 3 days (Group 2, n=6), 9 days (Group 3, n=3) or 18 days (Group 4, n=3).
The sheep were shorn on entry to the experiment and again at the conclusion of the experiment in March 2001 and a mid-side wool sample was measured for fibre diameter and yield. Wool samples were clipped from a standardised 100×100 mm mid-side patch on the right side of each ewe at monthly intervals to determine changes in seasonal clean wool production and mean fibre diameter. Wool growth and plasma prolactin concentration were measured at regular intervals and the results were plotted in FIGS. 7 and 8.

Data set [6] in a line: Trial 6: plasma prolactin after 9-day prolactin infusion in pregnant Romney or Wiltshire ewes. In kind it is in vivo, sheep. The settings on record: infusion 40 mg/day for 9 days, pregnant ewes in short days. The method, then: (§5) Four groups, each comprised of seven 1-2 year old Romney or Wiltshire ewes were shorn and maintained indoors in individual pens from March until November 2002. The animals were fed to maintain a constant maternal live weight (independent of conceptus and fleece weights). The ewes were mated in March, and maintained in short days (8L:16D). Half of the ewes were cannulated and infusions of prolactin (40 mg/day) for 9 days commenced one week after mating. Blood samples and skin biopsies were collected from all ewes at intervals to monitor plasma prolactin and skin prolactin receptor gene expression respectively. The results are plotted in FIG. 11.

For the next data set, the system named is sheep. To be noted: sheep held in darkness, infusion of prolactin; cited from earlier work.
A short description of data set [7]: Trial 5: plasma prolactin after two 9-day prolactin infusions in non-pregnant Romney ewes. To be noted: intravenous 1.0 mg/kg/day for 9 days. In kind it is in vivo, sheep. The procedure: as §4
Plasma prolactin concentrations were measured at regular intervals and ten midside skin biopsies were collected at intervals between October and December 2001 for measurement of prolactin receptor long form gene expression by real-time PCR. The results are plotted in FIG. 10.

Data set [8] has as its system prolactin receptor gene expression. The data set can be described thus: Trial 6: skin prolactin receptor gene expression in Romney or Wiltshire ewes. In kind it is in vivo, sheep. The settings on record: Wiltshire ewes treated in April, P<0.05. The procedure:
as §5

Data set [9] has the same test system. The data set can be described thus: Trial 8: prolactin receptor gene expression in mice mammary gland. In kind it is in vivo. To be noted: 3-day infused group, days 7 and 14, P<0.05. The procedure:
Swiss female mice were maintained in cages at a constant temperature of 22 C., under a photoperiod regime of 14 hours light: 10 hours dark, fed a diet of formulated mouse pellets ad libitum with access to fresh tap water. At 21 days of age, subcutaneous implants releasing 250 μg/day of bromocriptine over 60 days (Cat. Number SC-231; Innovative Research of America Inc.) were inserted under anaesthetic. At the same time, the mice received a slow release 100 μl osmotic pump (Alzet Model 1007D; Alza Corporation, Palo Alto, Calif.) delivering ovine prolactin (400 μg/day) for either 3 or 7 days. Mice were sacrificed in groups of 3 at intervals before, during and after prolactin administration. They were anaesthetised using CO2 and blood sampled by heart puncture, prior to euthanasia by cervical dislocation. The blood was centrifuged and the plasma stored at −20 C. by radioimmunoassay for ovine prolactin. The mammary glands were dissected from each mouse and snap frozen in liquid nitrogen prior to assay by real-time PCR for prolactin receptor gene expression. The results are plotted in FIG. 13.

Data set [10] deals with prolactin receptor long form gene expression. In words: Trial 4: skin prolactin receptor long form gene expression by real-time PCR. In kind it is in vivo, sheep. The method, then: as §1, §2, §3
Six midside skin biopsies were collected at intervals between April and June for measurement of prolactin receptor long form gene expression by real-time PCR and the results are plotted in FIG. 9.

The test system of a further data set is cows. To be noted: infusions of exogenous bovine prolactin; cited from earlier work.
The mark [11] stands for this setting: model parameter from literature.

Numbering of substitutions follows the chain as printed.

The values that follow come from patent US20050222039A1, “Animal treatment” (priority 2001, published 2005).

In the case of `CC(C)C[C@H]1C(=O)N2CCC[C@H]2[C@]2(O)O[C@](NC(=O)[C@@H]3C=C4c5cccc6[nH]c(Br)c(c56)C[C@H]4N(C)C3)(C(C)C)C(=O)N12` [bromocriptine], the “birth weight or live weight changes of lambs” value with Romney ewes [1] is reported as “did not affect”.

B1: prolactin: ovine prolactin pituitary extract; peptide hormone of approximately 200 amino acids, given by infusion, injection or osmotic pump (protein, UniProt P01240 31-229, looked up)
Prolactin: TPVCPNGPGNCQVSLRDLFDRAVMVSHYIHNLSSEMFNEFDKRYAQGKGFITMALNSCHTSSLPTPEDKEQAQQTHHEVLMSLILGLLRSWNDPLYHLVTEVRGMKGVPDAILSRAIEIEEENKRLLEGMEMIFGQVIPGAKETEPYPVWSGLPSLQTKDEDARHSAFYNLLHCLRRDSSKIDTYLKLLNCRIIYNNNC
modifications: pituitary extract
As for B1, in the data set with rabbits, the “recovery in milk yield” value was “accelerated”. In addition, the “mean clean fleece weight” value with Romney ewes [2] (PRL-INF, 6-month trial, ND-lambed controls 1.23 kg, SEM ±0.13 kg, P<0.01) came out at 1.63 kg. Also, in the data set on Romney ewes [2] (PRL-INF, by September, P=0.05), the “increase in mean fibre diameter” value is recorded as 2 μm. Besides, in the data set with Romney ewes [2] (PRL-INF, intravenous infusion 18 days, n=2, May and throughout pregnancy), the “decline in clean wool growth rate” value is “arrested in May and remained high”. Moreover, the “September clean wool growth rate relative to untreated ND-lambed ewes” value in the data set with Romney ewes [2] (PRL-INF, intravenous infusion, P<0.001) is reported as “approximately twice”. The “mean fibre diameter relative to ND-lambed controls” value in the data set on Romney ewes [2] (PRL-INJ, P<0.10) is “appeared to be lower”. The “September clean wool growth vs untreated ND-lambed ewes” value in the data set with Romney ewes [2] (PRL-INJ, daily subcutaneous injection, P<0.05) is “lower”. For the same molecule, the “decline in clean wool growth rate compared to pregnant controls” value in the data set with Romney ewes [2] (daily subcutaneous injections 0.8 mg/kg/day (PRL-INJ)) is given as “no initial effect”. Further, in [3] (PRL-INJ (injected) among remaining groups, over the trial), the “prolactin receptor gene expression, differences between remaining treatment groups” value is “no significant differences”. The “duration of high level of receptor expression vs untreated ewes” value in [3] (infused ewes, April to June, P<0.05) is “sustained for two months”. Moreover, the “prolactin receptor gene expression compared to other treatment groups” value in [3] (infused ewes, during and after the 18 day infusion, P<0.01) is reported as “significantly elevated”. Further, in the data set on prolactin receptor (model parameter from literature [Gertler et al., 1996]), the “α, rate of formation of dimer complex” value is 48000 M⁻¹ s⁻¹. In addition, the “d12, dissociation rate of hormone-receptor complex” value in the data set on prolactin receptor (setting [11]) was 4717.4 day⁻¹. In the data set with prolactin receptor (setting [11]), the “d, dissociation rate of hormone-receptor complex” value was 12.96 day⁻¹. Also, in the data set on prolactin receptor (setting [11]), the “α1, rate of formation of trimer complex” value is 35000 M⁻¹ s⁻¹. Besides, the “γ, clearance rate constant of plasma prolactin” value with prolactin receptor (setting [11]) was 35.6 day⁻¹. The “prolactin receptor gene expression” value in [4] (first 9-day infusion, P<0.01) was “elevated”; in data set [4] (second 9-day infusion, P<0.02), “elevated”. Also, the “mean total patch weight (clean wool)” value in the data set on Romney ewes [5] (3-day infusion) came to 0.74 g; with Romney ewes [5] (9-day infusion) it was 0.91 g; in the data set with Romney ewes [5] (18-day infusion), 0.66 g. In addition, in the data set on Romney ewes [5] (9-day infusion 1.0 mg/kg/day, during May), the “clean patch wool growth vs 3-day and 18-day infused groups” value is reported as “higher wool growth”. For the same molecule, the “mean fibre diameter difference vs other infused groups” value in the data set with Romney ewes [5] (9-day infusion, July) was “approximately 3 μm”. Moreover, the “wool growth rate vs other infused groups” value in the data set on Romney ewes [5] (9-day infusion, July, P<0.01, persisted until November) is reported as “higher than either of the other infused groups”. The “mean fibre diameter vs 3-day infused group” value in the data set on Romney ewes [5] (9-day infusion, June, P<0.01) was “significantly higher”. Also, the “plasma prolactin levels during prolactin administration” value in data set [6] is on record as “approximately 500 ng/ml”. Also, the nitrogen retention entry with sheep is listed as “increases”. Besides, the “plasma prolactin levels on termination of the infusions” value in [7] is on record as “fell rapidly to baselines levels”. Further, the “plasma prolactin levels during infusion” value in data set [7] (short day ewes) is recorded as “approximately 500 ng/ml”. In data set [8], the “prolactin receptor gene expression in September vs non-treated Wiltshire ewes” value is given as “increase”. The “prolactin receptor gene expression vs control group and 7-day infused group” value in data set [9] is given as “elevated”. Besides, the “prolactin receptor gene expression following commencement of infusions” value in data set [10] (3-day infusion group) was “all groups except the 3-day group”; in data set [10] (9-day and 18-day infusion groups), “dropped significantly”. Moreover, the “prolactin receptor gene expression following termination of infusions” value in data set [10] (all infused groups, not statistically significant) is reported as “rose”.

B2: bovine prolactin: exogenous bovine prolactin infused in cows (literature) (protein, UniProt P01239 31-229, looked up)
Prolactin: B1 Prolactin with N31D, V108A, H165Y
Turning to B2, the “bromocriptine-induced reductions in milk yield” value in the data set on cows is reported as “can prevent”.
